Patent publication US20240254227A1 (Alector, published 2024)
Where a chain is given by its changes, count along the chain named.

T1: recombinant human CD300LB overexpressed on Jurkat cells (human, UniProt A8K4G0 18-201)
T1 construct: also called huCD300LB; huCD300LB-expressing Jurkat cells
T1 sequence: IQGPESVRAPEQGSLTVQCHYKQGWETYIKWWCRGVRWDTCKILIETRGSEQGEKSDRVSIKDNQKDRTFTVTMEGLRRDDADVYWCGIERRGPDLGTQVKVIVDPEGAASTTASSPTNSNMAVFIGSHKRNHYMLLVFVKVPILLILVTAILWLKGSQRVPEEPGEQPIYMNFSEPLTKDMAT

T2: human CD300D-Fc (human)
T2 construct: hIgG1-Fc fusion; the entry is the whole fusion chain
T2 chain: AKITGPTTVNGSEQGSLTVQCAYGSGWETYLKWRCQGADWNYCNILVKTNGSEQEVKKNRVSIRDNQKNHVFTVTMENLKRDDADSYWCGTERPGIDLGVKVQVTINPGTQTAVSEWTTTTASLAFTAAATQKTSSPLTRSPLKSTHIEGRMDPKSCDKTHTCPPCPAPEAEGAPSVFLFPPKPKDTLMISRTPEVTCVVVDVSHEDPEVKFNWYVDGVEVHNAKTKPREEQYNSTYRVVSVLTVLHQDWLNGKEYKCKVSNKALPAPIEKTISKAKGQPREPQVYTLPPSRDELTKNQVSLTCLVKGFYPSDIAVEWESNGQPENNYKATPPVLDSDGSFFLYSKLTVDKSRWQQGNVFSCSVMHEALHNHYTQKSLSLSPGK

T3: human CD300F-Fc (human)
T3 construct: hIgG1-Fc fusion; the entry is the whole fusion chain
T3 chain: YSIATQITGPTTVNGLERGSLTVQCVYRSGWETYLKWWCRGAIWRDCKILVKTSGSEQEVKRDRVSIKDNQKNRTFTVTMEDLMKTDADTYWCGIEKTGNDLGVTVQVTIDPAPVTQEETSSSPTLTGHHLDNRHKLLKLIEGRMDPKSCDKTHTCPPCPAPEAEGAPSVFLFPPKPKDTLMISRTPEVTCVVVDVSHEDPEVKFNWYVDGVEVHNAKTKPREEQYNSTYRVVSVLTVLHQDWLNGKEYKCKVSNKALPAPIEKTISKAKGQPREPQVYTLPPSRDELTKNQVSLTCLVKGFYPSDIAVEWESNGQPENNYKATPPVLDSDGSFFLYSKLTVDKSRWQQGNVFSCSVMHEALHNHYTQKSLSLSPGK

B1: anti-CD300LB antibody CD-02 (antibody, V domains shown)
VH: QVQLQQPGAELVRPGSSVKLSCQASGYTFTNYWMHWVRQRPIQGLEWIGNIDPSDSETHYNQKFKDRATLTVDKSSSTAYMQLSSLTSEDSAVYYCARSGVYDDEGGDYWGQGTTLTVSS
VL: ENVLTQSPAIMSASPGEKVTMTCSASSSVSYIHWYQQKSSTSPKLWIYDTSKLASGVPGRFSGSGSGNSYSLTISSMETEDVATYYCFQGSGYPLTFGAGTKLELK
B2: anti-CD300LB antibody CD-07 (antibody, V domains shown)
VH: QVQLVQSGAEVKKPGASVKVSCKASGYTFTNYRMHWVRQAPGQGLEWMGWINPNSGGTIYAQKFQGRVTMTRDTSTSTVYMELSSLRSEDTAVYYCARDLDYWGQGTLVTVSS
VL: DIQMTQSPSSLSASVGDRVTITCQASQDISNYLNWYQQKPGKAPKLLIYGASSLQSGVPSRFSGSGSGTDFTLTISSLQPEDFATYYCQQSYSTPWTFGPGTKVEIK
B3: anti-CD300LB antibody CD-06 (antibody, V domains shown)
VH: QVQLVQSGAEVKKPGASVKVSCKASGYTFTTYAVHWVRQAPGQGLEWMGIVNPNSGGTNYAQKFQGRVTMTRDTSTSTVYMELSSLRSEDTAVYYCARDIVPMNNFYNYYYGMDVWGQGTTVTVSS
VL: B2 VL with Q24R, D28S, N31S, G50A, A51T, S53T, S93R, T94I, W96Y, P100Q
B4: anti-CD300LB antibody CD-05 (antibody, V domains shown)
VH: QVQLVQSGAEVKKPGASVKVSCKASGYTFSRYYINWVRQAPGQGLEWMGWINPNSGGTNYAQKFQGRVTMTRDTSTSTVYMELSSLRSEDTAVYYCTTDQLRFGKTGPYYGMDVWGQGTTVTVSS
VL: B2 VL with Q24R, D28N, S30G, N31T, G50A, T94D, P95T, W96L, P100G
B5: anti-CD300LB antibody CD-01 (antibody, V domains shown)
VH: RVQLQQSGAELVRPGASVTLSCKASGFTFTDFEMHWVKKTPVHGLEWIGAIDPESGNTAYNQKFRGKATLTADKSSSTAYMELRYLTSEDSAVYYCTPLISGADYWGQGTTLTVSS
VL: DVVMTQSPLSLPVSLGDQASISCRSSQSLVHSDGNTYLYWYLQKPGQSPKLLIYKVSNRFSGVPDRFSGSGSGTDFTFKISRVGAEDLGVYFCSQSTHVPWTFGGGTKLEII
B6: anti-CD300LB antibody CD-03 (antibody, V domains shown)
VH: EVQLQQSGPELVKPGASVKISCKASGYTFTDYYINWVRQSHGKSLECIGDINPNNGGTNYNQKFKGKATLTVDRSSNTAYMEFRSLTFDDSALYYCAAEGAYWGQGTLVTVSA
VL: not shown

target: T1, recombinant human CD300LB overexpressed …; experiment: flow cytometry on Jurkat cells overexpressing huCD300LB, apparent KD (Drake & Klakamp fit)
Experimental: Purified anti-CD300LB antibodies of the present disclosure were evaluated for their binding affinity to either Jurkat cells overexpressing recombinant huCD300LB or BaF/3 cells overexpressing recombinant muCD300LB. Binding of anti-CD300LB antibodies to the cells was determined as follows. Cells were harvested, washed, and labeled with propidium iodide for viability discrimination. After washing the cells with PBS, 1×10⁵ cells were aliquoted per well in 96-well U-bottom plates and incubated with 100 μL of purified anti-CD300LB antibody at various concentrations in FACS buffer (PBS+2% FBS). After this primary incubation, the supernatant was removed via centrifugation, the cells washed twice with 150 μL of ice-cold FACS buffer, and then incubated with the appropriate secondary antibody on ice for 30 minutes. Following the secondary antibody incubation, the cells were again washed twice with ice-cold FACS buffer and resuspended in a final volume of 200 L FACS buffer. Flow cytometry analysis was then performed using the FACSCanto system (BD Biosciences).
To determine affinity, antibodies at increasing concentrations were used to stain Jurkat cells overexpressing huCD300LB and geometric MFI values measured by the flow cytometer were analyzed on Prism (Graphpad) software.

| Kd | Binder |
| --- | --- |
| 64 nM | B1 |
| 66 nM | B2 |
| 329 nM | B3 |
| 15 nM | B4 |
| 27 nM | B5 |

Target: T2, human CD300D-Fc
Experiment: SPR (Carterra LSA), antibody immobilised
Procedure, shortened: (§1)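 Mouse anti-CD300LB IgG1 antibodies were amine-coupled in a 96-spot array on an HC200M chip; Fc-fused CD300 ectodomains (human on hIgG1-Fc) flowed over as analytes at 300 nM or 600 nM in HBS-TE with 0.5 mg/ml BSA, injected in series without regeneration, with kinetics fitted by high-throughput analysis.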

| binding result | Binder |
| --- | --- |
| no binding (tested: 300 nM or 600 nM) | B1 |
| no binding (tested: 300 nM or 600 nM) | B4 |
| no binding (tested: 300 nM or 600 nM) | B6 |
| no binding (tested: 300 nM or 600 nM) | B5 |

Target: T3, human CD300F-Fc
Experiment: SPR (Carterra LSA), antibody immobilised
Procedure, shortened: as §1

| binding result | Binder |
| --- | --- |
| no binding (tested: 300 nM or 600 nM) | B1 |
| no binding (tested: 300 nM or 600 nM) | B4 |
| no binding (tested: 300 nM or 600 nM) | B6 |
| no binding (tested: 300 nM or 600 nM) | B5 |
